Key:
[1] = biological target: Recombinant human ActRIIA-Fc (human, UniProt P27037 20-135); test: SPR
[2] = biological target: T1, Recombinant human ActRIIB-Fc (human, UniProt Q13705 19-137); test: SPR
T1 chain: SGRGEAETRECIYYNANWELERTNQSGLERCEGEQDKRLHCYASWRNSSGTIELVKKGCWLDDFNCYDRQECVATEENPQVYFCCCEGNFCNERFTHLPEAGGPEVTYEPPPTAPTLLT

Recombinant human ActRIIA-Fc, sequence (P27037 20-135): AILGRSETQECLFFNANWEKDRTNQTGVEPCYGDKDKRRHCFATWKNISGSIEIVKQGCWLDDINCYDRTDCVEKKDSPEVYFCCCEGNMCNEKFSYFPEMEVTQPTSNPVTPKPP

B1: Recombinant human ActE (bacterially derived, provided by R&D Systems) (ligand)
chain: TPTCEPATPLCCRRDHYVDFQELGWRDWILQPEGYQLNYCSGQCPPHLAGSPGIAASFHSAVFSLLKANNPWPASTSCCVPTARRPLSLLYLDHNGNVVKTDVPDMVVEACGCS
Q: How did the Kd [1] turn out when B1 was run?
A: 5 nM

Q: And the Kd [2]?
A: 20 nM

Reference: PMC11088876 (2024)
